Assays:
Assay in all cases: ELISA; binding of recombinant InvL to α5β1 integrin, collagen V, fibrinogen, mucin or BSA (negative control); two biological replicates; protocol based on ref. 50, details in the supplemental material
collagen V = target: collagen V
α5β1 integrin = α5β1 integrin (UniProt P08648)
fibrinogen = target: fibrinogen

UniProt P08648, sequence (P08648 42-1049, chain 1 of 2): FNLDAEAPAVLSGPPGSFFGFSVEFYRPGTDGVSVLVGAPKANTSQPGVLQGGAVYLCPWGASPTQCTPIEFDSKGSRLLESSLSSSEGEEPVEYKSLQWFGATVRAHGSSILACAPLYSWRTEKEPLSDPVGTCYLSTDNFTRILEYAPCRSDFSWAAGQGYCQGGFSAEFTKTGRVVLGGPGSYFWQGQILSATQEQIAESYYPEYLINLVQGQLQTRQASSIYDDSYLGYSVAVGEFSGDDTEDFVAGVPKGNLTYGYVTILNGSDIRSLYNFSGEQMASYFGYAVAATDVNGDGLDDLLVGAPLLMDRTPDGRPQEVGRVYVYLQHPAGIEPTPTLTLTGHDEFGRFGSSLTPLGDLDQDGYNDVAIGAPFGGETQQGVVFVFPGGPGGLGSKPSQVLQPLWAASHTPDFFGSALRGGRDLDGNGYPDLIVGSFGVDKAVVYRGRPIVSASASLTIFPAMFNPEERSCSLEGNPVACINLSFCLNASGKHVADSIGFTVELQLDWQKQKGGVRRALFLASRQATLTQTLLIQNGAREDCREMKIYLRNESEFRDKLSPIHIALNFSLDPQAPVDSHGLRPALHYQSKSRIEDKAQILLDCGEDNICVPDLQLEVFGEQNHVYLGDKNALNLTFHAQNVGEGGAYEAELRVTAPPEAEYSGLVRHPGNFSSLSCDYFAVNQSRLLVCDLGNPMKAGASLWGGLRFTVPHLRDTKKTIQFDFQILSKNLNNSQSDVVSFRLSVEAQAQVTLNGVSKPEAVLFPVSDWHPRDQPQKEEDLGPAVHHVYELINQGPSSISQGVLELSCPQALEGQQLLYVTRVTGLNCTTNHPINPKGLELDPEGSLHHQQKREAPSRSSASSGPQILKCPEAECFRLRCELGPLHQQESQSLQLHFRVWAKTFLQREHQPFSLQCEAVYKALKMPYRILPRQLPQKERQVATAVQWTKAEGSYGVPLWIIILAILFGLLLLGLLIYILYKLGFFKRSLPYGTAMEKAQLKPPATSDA
UniProt P08648, sequence (P05556 21-798, chain 2 of 2, further chain): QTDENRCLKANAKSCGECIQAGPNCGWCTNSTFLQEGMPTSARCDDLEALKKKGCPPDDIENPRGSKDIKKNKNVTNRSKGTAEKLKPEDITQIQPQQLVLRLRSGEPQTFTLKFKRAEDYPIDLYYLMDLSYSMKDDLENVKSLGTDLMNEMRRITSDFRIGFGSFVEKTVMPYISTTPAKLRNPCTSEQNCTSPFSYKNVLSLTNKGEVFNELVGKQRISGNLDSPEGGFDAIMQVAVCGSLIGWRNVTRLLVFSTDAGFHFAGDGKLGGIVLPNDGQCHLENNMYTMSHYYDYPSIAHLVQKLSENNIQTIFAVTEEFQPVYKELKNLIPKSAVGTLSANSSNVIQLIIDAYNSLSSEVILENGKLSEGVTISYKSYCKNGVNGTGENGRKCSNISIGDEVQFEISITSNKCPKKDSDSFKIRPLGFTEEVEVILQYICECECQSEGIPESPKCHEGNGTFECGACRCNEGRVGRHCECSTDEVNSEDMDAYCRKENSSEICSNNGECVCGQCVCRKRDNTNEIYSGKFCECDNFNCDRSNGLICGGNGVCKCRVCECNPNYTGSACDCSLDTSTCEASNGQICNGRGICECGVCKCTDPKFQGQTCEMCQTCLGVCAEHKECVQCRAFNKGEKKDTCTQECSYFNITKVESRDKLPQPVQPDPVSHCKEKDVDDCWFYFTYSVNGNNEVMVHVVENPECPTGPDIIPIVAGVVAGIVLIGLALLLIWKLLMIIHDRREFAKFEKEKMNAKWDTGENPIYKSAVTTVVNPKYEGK

Substance “soluble recombinant InvL lacking the N-terminal signal sequence, with a C-terminal His10 tag (natural protein)” has a Kd (collagen V) of 15000 nM, a Kd (α5β1 integrin) of 0.38 nM and a Kd (fibrinogen) of 0.19 nM.

Source: paper PMC9245377
